Laboratory results taken from the supplement of paper PMC10126150.
± gives the standard deviation of the averaged measurements.

system: ATP; test: switch fluorescence ratio, 500 uM ATP over buffer (Cy3 cluster intensity, sum of 5 cycles each) (fold (ratio)); higher = stronger signal-on switching upon ATP binding; sequences stand for … in TCGTCGGCAGCGTCAGATGTGTATAAGAGACAGTTTTTTTTTTTTTTTTTTTTTTTTT…TC; conditions: aptamer strand: ATP DNA aptamer (quencher-CACCTGGGGGAGTATTGCGGAGGAAGG + anchor), 100 nM annealed; ATP concentration: 500 uM
Method in brief: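 Cy3-labelled switching-strand clusters on a modified Illumina MiSeq flow-cell were annealed to 100 nM quencher-labelled ATP aptamer, imaged in selection buffer, then imaged after 15 min with 500 uM ATP at 22 °C. Five buffer/ATP cycles ran, with NaOH stripping and re-annealing between them. The fluorescence ratio is summed target-cycle over summed buffer-cycle Cy3 intensity per cluster, averaged per switch-domain sequence. Clusters outside 100-1000 RFU were excluded.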
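Further: ATP exposure 15 min at 22 °C before imaging.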

Row | Sequence | switch fluorescence ratio
1 | GTGCGATTTA | 0.992 ± 0.034
2 | GTGCGCAGAA | 0.988 ± 0.015
3 | GTGCGCCGGT | 1.02 ± 0.036
4 | GTGCGGTGGC | 1.04 ± 0.038
5 | GTGCTAAGAG | 0.969 ± 0.043
6 | GTGCTATAGT | 1.031 ± 0.0018
7 | GTGCTTAATT | 1 ± 0.05
8 | GTGCTTCGGT | 0.948 ± 0.026
9 | GTGCTTTTTT | 0.993 ± 0.013
10 | GTGGAACATT | 1.02 ± 0.049
11 | GTGGAACGTA | 0.976 ± 0.015
12 | GTGGAAGTCC | 1 ± 0.022
13 | GTGGAAGTGG | 1.02 ± 0.034
14 | GTGGAATATT | 1.04 ± 0.063
15 | GTGGACCGGA | 1.06 ± 0.012
16 | GTGGACTTGC | 0.973 ± 0.042
17 | GTGGATGGAC | 1.03 ± 0.022
18 | GTGGATTGGA | 1.05 ± 0.024
19 | GTGGCAAAGA | 0.993 ± 0.023
20 | GTGGCAAGTT | 0.97 ± 0.017
21 | GTGGCACG | 1.01 ± 0.025
22 | GTGGCGAGGG | 0.996 ± 0.0078
23 | GTGGCGCGGA | 0.959 ± 0.013
24 | GTGGCGGGGA | 1.02 ± 0.038
25 | GTGGCGGTG | 0.985 ± 0.014

Row | Sequence | switch fluorescence ratio
26 | GTGGCTATCG | 0.993 ± 0.025
27 | GTGGCTGCGT | 0.9776 ± 0.0063
28 | GTGGCTTGTG | 1 ± 0.029
29 | GTGGGAATTT | 0.9823 ± 0.0081
30 | GTGGGACGGG | 1.03 ± 0.056
31 | GTGGGAGGCT | 1 ± 0.024
32 | GTGGGATTT | 0.995 ± 0.022
33 | GTGGGCTTGT | 0.979 ± 0.048
34 | GTGGGGAATC | 1.02 ± 0.082
35 | GTGGGGAGAG | 0.9602 ± 0.0078
36 | GTGGGGCACG | 0.9933 ± 0.0095
37 | GTGGGGCAGC | 0.945 ± 0.015
38 | GTGGGGCATT | 0.9905 ± 0.0086
39 | GTGGGGCGGT | 0.9832 ± 0.006
40 | GTGGGGGAAT | 1 ± 0.011
41 | GTGGGGGGAG | 1 ± 0.026
42 | GTGGGGGGCT | 0.984 ± 0.029
43 | GTGGGGGGGA | 1.01 ± 0.023
44 | GTGGGGGGGG | 0.995 ± 0.038
45 | GTGGGGGTAT | 1.05 ± 0.15
46 | GTGGGGTATT | 0.977 ± 0.028
47 | GTGGGGTCCG | 0.99 ± 0.046
48 | GTGGGGTCGT | 0.926 ± 0.045
49 | GTGGGTGGGT | 1 ± 0.025
50 | GTGGGTTGGT | 1.008 ± 0.0054

Row | Sequence | switch fluorescence ratio
51 | GTGGTATCAT | 0.978 ± 0.03
52 | GTGGTATGCA | 1.02 ± 0.074
53 | GTGGTCGCTG | 0.982 ± 0.019
54 | GTGGTGTGGT | 0.982 ± 0.011
55 | GTGGTTCCTG | 0.967 ± 0.015
56 | GTGGTTCGGG | 0.975 ± 0.029
57 | GTGGTTGGAA | 0.963 ± 0.022
58 | GTGGTTTTAT | 0.979 ± 0.013
59 | GTGGTTTTGA | 0.9832 ± 0.0064
60 | GTGTAAAGGC | 0.96 ± 0.021
61 | GTGTAAGACC | 1.03 ± 0.027
62 | GTGTAATGGT | 1.03 ± 0.021
63 | GTGTAATTAT | 0.9697 ± 0.0055
64 | GTGTACCGGA | 0.9813 ± 0.0017
65 | GTGTACTCAT | 1.01 ± 0.035
66 | GTGTATAGAG | 0.99 ± 0.051
67 | GTGTATAGTT | 1.02 ± 0.056
68 | GTGTATTAGT | 0.9656 ± 0.003
69 | GTGTATTATT | 0.976 ± 0.02
70 | GTGTATTGGT | 0.983 ± 0.024
71 | GTGTCAGTTG | 0.93646 ± 0.00087
72 | GTGTCCGGGC | 0.979 ± 0.025
73 | GTGTGAAAAC | 1.02 ± 0.02
74 | GTGTGAGATT | 1.02 ± 0.024
75 | GTGTGAGTAG | 1.02 ± 0.039

Row | Sequence | switch fluorescence ratio
76 | GTGTGATCTC | 0.992 ± 0.046
77 | GTGTGGAGGG | 1.016 ± 0.0016
78 | GTGTGGCAGG | 0.992 ± 0.024
79 | GTGTGGGAAG | 1.01 ± 0.028
80 | GTGTGGGGAT | 1 ± 0.044
81 | GTGTGGGGCT | 1 ± 0.019
82 | GTGTGTAGGG | 0.999 ± 0.039
83 | GTGTGTCCGG | 0.987 ± 0.026
84 | GTGTGTCTGT | 0.991 ± 0.021
85 | GTGTGTGGCT | 0.976 ± 0.051
86 | GTGTGTTAAC | 0.9738 ± 0.0095
87 | GTGTGTTGGG | 0.984 ± 0.026
88 | GTGTGTTTAG | 0.9892 ± 0.0058
89 | GTGTGTTTGC | 1.004 ± 0.0058
90 | GTGTTAAGGA | 0.995 ± 0.02
91 | GTGTTAAGGG | 0.979 ± 0.028
92 | GTGTTAAGTA | 1.0306 ± 0.00088
93 | GTGTTACGTT | 1.02 ± 0.021
94 | GTGTTAGCTA | 1 ± 0.011
95 | GTGTTAGGCT | 0.978 ± 0.012
96 | GTGTTAGGTT | 1.01 ± 0.017
97 | GTGTTCAAGG | 0.971 ± 0.015
98 | GTGTTCATCG | 0.973 ± 0.037
99 | GTGTTCGGGC | 1.02 ± 0.011
100 | GTGTTCTAAA | 1.03 ± 0.041

Row | Sequence | switch fluorescence ratio
101 | GTGTTGGTAG | 0.984 ± 0.018
102 | GTGTTGGTTG | 0.982 ± 0.038
103 | GTGTTGGTTT | 0.986 ± 0.024
104 | GTGTTTAAAG | 0.98 ± 0.02
105 | GTGTTTAAGC | 0.978 ± 0.012
106 | GTGTTTATAG | 0.993 ± 0.018
107 | GTGTTTGGGA | 0.997 ± 0.033
108 | GTGTTTGGGG | 0.977 ± 0.023
109 | GTGTTTTCTT | 1.006 ± 0.0025
110 | GTTAAAAAGA | 1.08 ± 0.22
111 | GTTAAAAGGT | 1 ± 0.039
112 | GTTAAAAGTG | 0.987 ± 0.03
113 | GTTAAAATTT | 1.001 ± 0.0014
114 | GTTAAATCTT | 1 ± 0.042
115 | GTTAAGAAAG | 1.01 ± 0.012
116 | GTTAAGGATT | 1.03 ± 0.085
117 | GTTAAGGGGT | 1.007 ± 0.0026
118 | GTTAATGTCC | 0.994 ± 0.014
119 | GTTAATTACA | 1.026 ± 0.0096
120 | GTTACAGGTC | 1.006 ± 0.0019
121 | GTTACATTAA | 1.01 ± 0.021
122 | GTTACCCGA | 0.98 ± 0.016
123 | GTTACGGGGA | 1.02 ± 0.051
124 | GTTACTTGCC | 0.992 ± 0.039
125 | GTTACTTGCT | 1.01 ± 0.059

Row | Sequence | switch fluorescence ratio
126 | GTTACTTTGT | 0.992 ± 0.0075
127 | GTTAGCACCC | 1.04 ± 0.04
128 | GTTAGCCTTG | 1 ± 0.039
129 | GTTAGGGCGG | 0.998 ± 0.042
130 | GTTAGGGTAG | 0.992 ± 0.025
131 | GTTAGGTAGC | 0.997 ± 0.011
132 | GTTAGTATTG | 0.998 ± 0.021
133 | GTTAGTCTGA | 1.01 ± 0.043
134 | GTTAGTGGCA | 0.984 ± 0.012
135 | GTTAGTGTGC | 0.984 ± 0.013
136 | GTTAGTTGGT | 0.993 ± 0.017
137 | GTTAGTTGTT | 0.987 ± 0.013
138 | GTTATAACCG | 0.993 ± 0.024
139 | GTTATAAGTC | 1.01 ± 0.026
140 | GTTATACATT | 1.02 ± 0.011
141 | GTTATACGAA | 1.028 ± 0.0085
142 | GTTATATAAG | 0.984 ± 0.011
143 | GTTATATATG | 1.015 ± 0.0029
144 | GTTATATGTT | 1 ± 0.03
145 | GTTATATTTG | 0.997 ± 0.031
146 | GTTATCCGGG | 1.01 ± 0.036
147 | GTTATCGGAC | 1.01 ± 0.015
148 | GTTATCGTGC | 0.992 ± 0.059
149 | GTTATGCCGG | 0.97 ± 0.094
150 | GTTATTAGCG | 0.969 ± 0.05

Row | Sequence | switch fluorescence ratio
151 | GTTATTTTCC | 1.01 ± 0.071
152 | GTTCACGGGA | 1 ± 0.058
153 | GTTCAGAGGG | 1.05 ± 0.1
154 | GTTCATACGG | 1.06 ± 0.043
155 | GTTCCAGAGG | 1.03 ± 0.011
156 | GTTCCGCGGT | 1.371 ± 0.0055
157 | GTTCCTTGGA | 1.01 ± 0.045
158 | GTTCGACTCC | 1.15 ± 0.014
159 | GTTCGGAGTG | 0.9877 ± 0.0086
160 | GTTCGGCGAA | 1.02 ± 0.024
161 | GTTCGGGCTC | 1.03 ± 0.019
162 | GTTCGGGGAC | 1.026 ± 0.0094
163 | GTTCGGTATG | 0.984 ± 0.033
164 | GTTCGGTGGA | 1 ± 0.041
165 | GTTCGTGTGG | 0.987 ± 0.028
166 | GTTCTAGGGT | 0.9743 ± 0.0042
167 | GTTCTCTGGG | 0.987 ± 0.034
168 | GTTCTGATGT | 1.01 ± 0.029
169 | GTTCTTGTTC | 1.004 ± 0.0069
170 | GTTCTTTATC | 0.994 ± 0.018
171 | GTTCTTTTAT | 1.01 ± 0.024
172 | GTTGAAACAC | 1.02 ± 0.046
173 | GTTGAAGCCC | 1.013 ± 0.0071
174 | GTTGAATTAT | 0.987 ± 0.016
175 | GTTGACCTCG | 0.992 ± 0.03

Row | Sequence | switch fluorescence ratio
176 | GTTGAGAGTC | 0.995 ± 0.038
177 | GTTGAGCTGG | 0.971 ± 0.019
178 | GTTGATAGGA | 0.988 ± 0.03
179 | GTTGATCCGA | 0.971 ± 0.013
180 | GTTGCAGGGG | 1.08 ± 0.013
181 | GTTGCAGTTC | 1.01 ± 0.034
182 | GTTGCGCGTC | 1.03 ± 0.024
183 | GTTGCGGTTG | 0.986 ± 0.039
184 | GTTGCTAGAG | 1.006 ± 0.0035
185 | GTTGCTAGTG | 0.973 ± 0.024
186 | GTTGCTTGCG | 1 ± 0.02
187 | GTTGGAAAGG | 0.97 ± 0.039
188 | GTTGGAATTG | 0.992 ± 0.024
189 | GTTGGACAGC | 1.01 ± 0.023
190 | GTTGGAGGA | 1.04 ± 0.061
191 | GTTGGAGGCT | 0.989 ± 0.096
192 | GTTGGAGTTT | 0.975 ± 0.016
193 | GTTGGATGCT | 0.949 ± 0.028
194 | GTTGGATTTG | 0.994 ± 0.017
195 | GTTGGCCGGC | 1.11 ± 0.073
196 | GTTGGCGACG | 0.946 ± 0.012
197 | GTTGGCTATT | 0.984 ± 0.007
198 | GTTGGGACGG | 0.9569 ± 0.006
199 | GTTGGGACGT | 0.973 ± 0.013
200 | GTTGGGCGGG | 0.991 ± 0.035
